Reference: publication PMC12505970

Molecular target: FLAG-AuxB^W86A (S. aureus) (S. aureus)
Experiment: co-IP; FLAG-tagged bait from S. aureus membranes solubilised in 1% DDM (PBS pH 7.4, NaCl), α-FLAG M2 magnetic beads at 4°C, washes with decreasing DDM, elution with 3×FLAG peptide; Coomassie-stained gel, bands identified by LC-MS

## PknB (endogenous, S. aureus) (from UniProt A0A0H2XGG5 1-664) (natural protein)
  ratio of PknB pulled down, AuxB^W86A against wild type (densitometry): 4.2
  ratio of PknB pulled down, AuxB^W86A against wild type (peptide counts of PknB in the total eluate): 5
